Test results: patent US8282967B2, “Nitric oxide-releasing particles for nitric oxide therapeutics and biomedical applications” (The University of North Carolina at Chapel Hill, priority 2005, dated 2012)

How the values were obtained:
[1] = Nitric oxide release from diazeniumdiolated materials; format: physicochemical
Procedure: Nitric oxide release of the presently disclosed NO-releasing particles was measured according to the following general procedure. Referring now to FIG. 12, a predetermined volume of phosphate buffer solution (PBS) (pH 7.4, 37° C.) was disposed in a receptacle, e.g., a round-bottomed flask. The receptacle was sealed, leaving an inlet for nitrogen gas and an outlet for a mixture of nitrogen and nitric oxide. The outlet was in fluid communication with a chemiluminescence nitric oxide analyzer. An aliquot of a solution containing a diazeniumdiolated species was injected into the PBS buffer. The chemiluminescence nitric oxide analyzer measured the amount of NO that reacted with ozone (O3) to form excited NO2*, which emitted electromagnetic radiation (hv) as shown in Scheme 2. […] NO2*→NO2+hv Scheme 2. Measurement of NO by chemiluminescence.
NO release from a variety of NO-releasing materials was measured according to the procedure outlined in Example 3. The diazeniumdiolated fumed silica particles were prepared as described in Example 9, below, grafting the fumed silica surface to N-(6-aminohexyl)-3-aminopropyltrimethoxysilane, followed by diazeniumdiolation of the secondary amine with NO gas.

[2] = tested on: A2780 ovarian epithelial tumor cells; test: MTT cell viability assay, A2780 cells; format: cell-based, human; settings: small molecule NO donor; cell line not named in the sentence (b369 names OVCAR-3 for PYRRO/NO)
Procedure: To evaluate the tumoricidal potential of NO donor silica nanoparticles, the cytotoxicity of control and NO-releasing silica particles on immortalized normal (T29) and cancer (A2780 and OVCAR-3) human ovarian epithelial cells was tested. MTT cell viability assays were performed as described below. The 3-(4,5-dimethylthiazol-2-yl-)-2,5-diphenyltetrazoliumbromide (MTT) proliferation assay was employed to determine the relative sensitivities of OVCAR-3 cells to PYRRO/NO. Cells were seeded in 6 replicates at 1−5×10^3 cells/well in 96-well microtiter plates, incubated overnight, and exposed to concentrations of NO donor and control pyrrolidine solutions for 48 h. The NO-releasing medium was then removed and replaced by MTT solution, upon which the cells were incubated for an additional 4 h at 37° C. Following removal of the MTT, DMSO was added, and the absorption of the solution was measured at 560 nm using a microplate reader.
To investigate whether nanoparticle size affects cytotoxicity, two silica nanoparticles (75 mol % MAP3, balance TEOS) of different particle size (80 and 350 nm in diameter, hereafter referred to as s-MAP3 and L-MAP3, respectively) were synthesized. […] Cell viability was determined by incubating T29 and A2780 with non NO-releasing control MAP3 particle (80 nm), s-MAP3, or L-MAP3 (0.4 mg/mL) for 48 h. […]

## Proteins (Bovine serum albumin (BSA): diazeniumdiolated bovine serum albumin
[1]
  NO Released: 0.54 mmol NO/g
  tv2: 7.2E4. min

## [Na+].[O-]N=[N+]([O-])N1CCCC1 [PYRRO/NO]
[2]
  Cytotoxic NO concentration: 4.4 mM NO
